From the NTF2 design screens of Basanta et al. (2020) come the findings set out here.

This data set in a line: protease stability score; higher = more stable; yeast display proteolysis, trypsin and chymotrypsin.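 Further: log10 excess protease needed over predicted unfolded state with 0 meaning unfolded.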
“DEEAERIIERYLEAVKTNDPEQMKEMADPNVKVKVGDKVIHGMEDAVKKVQHRLDEQRVEIKHVTLKVRNGRVNVEADVVVTHNGRPDRSKYHIDMEAHNGSAVYVRITDVS” yielded a protease stability score of 1.38.

The sequence “DEEAETVLKRWLTALRENDPQQAADLADPHAQFQIGEKTIRGREDLKRFMDEMLHHLRVDFTIDHVKVTGETVVVHFTVEFNVNGRPLRFEVVLVVKAENGKVKQLEQHMDDDQWRQVKS” yielded a protease stability score of 0.358.

In turn, “DEEAFKRFKEMVDAIRTGDRDRVRRLADPNARFEVGDKEVRGMDDYARKIKRKRDEIRMRYQIDSYSKSGDKVVARVQVEVEHNGQPSSHVYRAEFKNSNGRIVELNVKTDS” showed a protease stability score of 0.275.

For “DEEAFKVMEKLEEDIHTGSEENIEKLFDPNARLRVGDHVVDGRHNIAKHVRDVRESARLEFSVRTYDMQGEKVRLDVTWRREHNGQPESATATVVAEIHNGRIVSVTVDERK”, the protease stability score turned out to be 0.801.

Sequence “DEEAHELWKKWQEAFKTGDPEQLHEMADKDARLRIGNKEIHGREKAVKQLVDERKEMHIDYRIRSYKFEGNRLTFTAHANARVNGQPYRYTVKMQFSFSNGRLKELQIRIPEEVMQELRN” came in with a protease stability score of 0.791.

“DEEAHEVIDTLRKAQETGDRNTARSLIDPNATFQVGDNVIRGREEYVRDLVRHRDQIRVELKHLSQTFSNGKMRMTQEAVYDINGRPDRVEFTASATIHNGRVKHMTVQVPPEQVKRLER” came in with a protease stability score of -0.181.

In turn, “DEEAHKLATKWLRAVQTGDPDTVKELVDPNVRAVYGDQEITGRERLADEIKKTRDHSRVELESVRVTVHGDKVRAQADVRVNTNGKPERNTVDVTIVIHNGRIKRMHMQKSQ” came in with a protease stability score of 0.7.

“DEEAHKLMEEMMRAWKHGDSQRVADLVDPNARVKIGDKEVRGHEQIKELVHTLKTEMRIEYQSISAENHGNHVEVDARLSVESNGKPEQVDFKLRLVVQNGRIREISADYKP” displayed a protease stability score of -0.035.

Regarding “DEEAHKVAESFIKAYSNGDEDKLKKNVDPNARIQIGDKYIHGMDTFVKEQRKRREQSRYHMSITHVDVQGNEVDVRFKAESEHDGQPHTNRMSVNFTFHNGNIKNVDIQYEP”, the protease stability score is -0.307.

With “DEEAIDLANRFLEARKTGDPDKAREQADPNATFKYGDREVHGMDEMARQIEHEHKESRVNIDVDRVTDTGDTAKFDMSVRENHNGQPHTVKMDMVVKAHNGHIKHLSYTLNG”, the protease stability score is -0.514.

The sequence “DEEAIHRMEEFIKNVNNNNEEKLKELADPNVDAHIGDKVIHGMERIVTELVKELENIDIEYKDMRVEDRGDNIHIQIRAIFHHNGKPQEHTQIIDVQVENGKVKKMRRSSDS” registered a protease stability score of 0.185.

For “DEEAIKQAKKLLDALRTGDEETLKEMIDPNARIHVGDKEVHGREEAAEQWQRRQEEQSMDWKVKSVENTNGRAEFRATATRRHNGQPDHFDFTWRVQAHNGRVKHMQVETRG”, the protease stability score was -0.262.

Sequence “DEEAIKVQEEIQKQEEKGNEENVEKNMDENVKLRVGDKDLEGRSEVSKDVRRRKDEMRFQYLHMSYHSNGETIRVNIEMSSNHNGRPDTRRFDATFHIHNGKLTEYSKESSQ” returned a protease stability score of 0.161.

Sequence “DEEAKDNFETAFKAEMTGDPQKYKKNVDPNAKVTIGDKTVRGREEVAKQLQHRRKESHVEFTDMKVKVQGDKVVVKLKAVDNENGRPDTAHYDIQFHASDGRITDLKVNKTK” registered a protease stability score of -0.049.

“DEEAKEVLERWHTAIKHGDPNLAKEMADKDVRINVGDKSFSGMEQNAKDMHRERNELEYEILSVRFEVHGDKVKVEFHATRNNNGNPDTKKFDLTATASNGKATRVTLQSSG” came in with a protease stability score of -0.538.

With “DEEAKKLADEWADAVNKNDEKSLKDLVDPNAKFRVGNQEYHGREQLEEFLSKWMSEWRHSLEDWRVNVQGDTVVLTAKLNVDVNGKPARVDAHVEFVVHNGRIKSQSEQFDEQRLRDNKS”, the protease stability score came to 0.521.

Sequence “DEEALEILRDAWEALRTGDHEKLRELFDKNANVRIGEKRFEGSDEIMRDWLTTIRNIRFHIHDIKFTVNGDKAVVRVNVNFEHNGKPQSDVYRMSAEADNGRIKSADADRDK” returned a protease stability score of 0.391.

Take “DEEALHILERFLKLMETNDEETLRDLVDPNAENRVGDKTVHGREDFQREVHTMKKQWRVRFRHIDNQSRPNEAVVRANVNNDINGRPITEDVVFRADFKNGKLKSLHIQMPEEYKKELDK”: the protease stability score was 0.455.

Take “DEEALHLATQLYTNWRNNNPEEVVKLLDENARINVGDFNVTGRNNVRSTLEHLNREMHFEMRISSVDDHNGRAHLTVEARKNINGQPRNVSMKMEVQFHNGKIQQIVAHMPEEDIRTLQS”: the protease stability score turned out to be 0.811.

In turn, “DEEALKFAETFLEVLHKGNPDDLRRLIDENVEIKIGDHEIDGMDNAVKQLHTRIKEINMHIKVDSMKAQGDSIKIHFTREVHRDGRPDTRHATLIMRFNNGELQRFQVDDRQ” came in with a protease stability score of 0.335.

“DEEALKHAKKLLNIITNGNPSEAQKLFDPNAKAHIGDQTLTGREDYVRDLQEKKDRMRYKIKSMDAQTDGEKVRFDIKYDFNINGQPRHASVVIRLKLHNGKIVEIRVQIDPEQLKQHRQ” yielded a protease stability score of 1.09.

Sequence “DEEALKKLQDILRRNDQDKMNKMIDKDVRVVIGEHEYRGKRNVQEALKREYEHADRFEVKHIEDHGDKLHVDVVLRVDGRDIRFVVVIDVHNGNIRNVKVDFTDEDTQRDFQRQLD” gave a protease stability score of 1.01.

In turn, “DEEALKKMVDTLLKYVEQGNIKDIQQILKENVEFKLGDTEYKGVEHAKRDVKKLKDAGVEVHVKKTEVEGDTAHVETVWHAGDYEMHVTVQYVVRGDKVEKVEVRWSEEAKKALKVG” had a protease stability score of 0.24.

In turn, “DEEALKLLESLMEAVKTNNEERLKSLVDPNAHFQYGDKTLHGMEDWAKEVVRRMREIHVEWEWHTWSVHNGQIVVDVHARLEINGRPVHWKERIIVELENGKVKSMVFQISEEEKKHIDG” displayed a protease stability score of 1.6.

For the sequence “DEEALKNVKENLEDGDWDNLAKQADENATWVYGEKRVHGRRDLKKYAEAMKRQIDHWSIRSITTRGNKASVNAEVQVNGHRRSFHIEVEVENGHIKHWNMNFTDPTDERKVLKILE”, the protease stability score was -0.017.

Regarding “DEEALKNWEHQLRAHEQGDENRLKELADPNVRYRVGNHEIRGMQQRVEDASRVKEHMRVQMSIQEVEVRGDKFDATATAEYVVNGRPQQITYKFSFHAHNGKIKNLDVRLDEDQQRKLEK”, the protease stability score amounted to 0.184.

“DEEALKQAEEILTQRQTGNPQEVMKNMDKNVKFDYGDKTIHGKENLEKDVEKERTEMRYEIKSVEFRARGNKVVADFRATFNVNGHPFSVRVVFIAHFEDGKIKKATENVSEEQRKKMKS” displayed a protease stability score of 0.084.

For the sequence “DEEALKRVEKFWEALNTGNEDELRKQLDPNARIRIGDKDIQGREDMAKWVRRVNRQMKMTVTIEDMQTRPGRAEIDAKASVNHNGRPNQHDVKLSAEFHNGQITSLTVQLKG”, the protease stability score amounted to 0.592.

“DEEALKVLKEWIKAVETGDEERIKELVDKDVTVQVGDKVIRGREQVAKTVRKEREEMRVEINFDRLHADGDRVSAEFKVVEETNGRPNTKKQRMSARVHNGKFKSMEIQDDG” came in with a protease stability score of 0.205.

“DEEALNLFHRMINAIQENDPDTLHRLVDPNARIQIGDHDIHGMKTYVREVEKTLRSMRIKFDIKSVDVTGDKVVIDEKVDFDINGKPVHNKVEMRIKAHNGTVKHLDWKVPEDELKKIEE” came in with a protease stability score of -0.232.

As for “DEEALNNLHEFFKHWNTGNPHELMKLADPNVRFQVGEKVIHGREEFMKDIKRIREELRQEIDVRDVKVQGEKLIVKATRSEERNGKPSSDTIHMTARVHNGRIKSVDIKSTS”, the protease stability score was 0.435.

Consider “DEEAMKRFQELLDVLRTGDENRAKKLMDENVHLLVGDKEINGRDHAAKTMAQTYREMRIEYKTVKRDVTNGVVHVRMRYVKEHNGTPNDRVVLVEVRFHNGRLKVLNRNEKD”, for which the protease stability score stood at 0.352.

Consider “DEEAMKVFEEIMRAIEQGDPDRIIENADEDVRFDVGDKRLHGREKAAKDLVDFLHHQRTHIRSYDTSVSGEKLTLDVDMVNQNNGNPNSKRYTVDAHVHNGKLKSVKETDDQ”, for which the protease stability score was -0.27.

Sequence “DEEANDLFRQIQTAENDNNPDEITELFDENATFRVGDRVIKGREKYAHKVVENLQKWRFTWDRIDVKARNGHARVTIRMTFNVNGKPDSYQAVMHLQFSNGRVQEIHMDIDPRKAKELLK” gave a protease stability score of 0.124.

On to “DEEANEMAKSYLEAKTRGDPRSAKELADKDAEFVVGDKTYQGMDENSDNMRRERDEQRTKVKILHLDDRPNHAVIKYRVEVQTNGQPRTKNYELNLQYSNGKIKYVRVEDRK”, for which the protease stability score was -0.027.

The sequence “DEEANKIAKKFQEALRKGDENRLKELVDPNVRMEYGDHSIHGREELEKDVRKKKRDMRVKITLDHMEDNGSEVTAKVRWTQEHNGTPDSTHFSARFDFTDGRLKHYDQNDSG” registered a protease stability score of -0.009.

“DEEANKNMKDMWRTGDWKQIAENADEDAHYQVGDKKFSGREQVQTFIELLQNRVDDQNIRDMEDKGNEIDIEFTVVINGRKLVLHATVQAHNGRVKSWTVKVTDRDDKRKLDEALR” came in with a protease stability score of 0.307.

On to “DEEANKVAKKLWEAIDHGNKEQAKELADPNAKAHVGDKSIHGMDTFVTWIKEIFDTMSFEVRIEDMKVHNGRLSANVRATFDINGQPRHQQARFKMDIHNGKISKVVIEMPKEKWKTILR”, for which the protease stability score amounted to 0.97.

On to “DEEANKVIDRLLKAIKHNNPDQAQHNMDEDVRIRIGDQEINGREQAKKEIRKRNEKMRINIDEVTLNEHPNKVRIQYRYKVDVNGRPVRNSAHMEARVSNGKVKEIDVRVSEDQKRHEER”, for which the protease stability score came to 0.018.

With “DEEAQELAERVFKALQTGDPDTLVKNMDPNVRLDVGDKKIQGREEAKKHADRLRHEQKVEYDSYEVRVHDGRVVVRLHWKFTVNGHPRTLTLTVEMKAHNGKVKHFSQRVPEDVLRKMKS”, the protease stability score was -0.049.

“DEEAQEVVEDMLRAIDKGDEDQIRRNVDKDAKVKVGNHELHGREQIAKFLSKERNEIEQSFQYESVTVDGDKIKFQFEMSRNVNGKPMRVSAQAEADAHNGKIRHFKVNVDTDVERRIDS” returned a protease stability score of -0.165.

“DEEAQEVYHRLRKVLENNNPKEFEENVDKDVRFNIGDKRIHGREQASKDWKSRMEEQHRKITRVENQSHGNEFEVRAKVNYDHNGQPRQQDLSAHVVAENGKLKMATYEVRK” came in with a protease stability score of 0.018.

In the case of “DEEAQKAAERVWKAIERGNEEELHRLIDPDVRIKVGDKDYHGREHYVESVVEIMTTIRFTIHRMEIKVSGERVIIEYHYEFSVNGQPDTMRVIVYMVAHNGKVKNIHVKMSPEKRDRFRE”, the protease stability score was determined as 1.05.

Take “DEEAQKHIQQMFHAIDHGNPEKVKELADPNVNIEVGDKRYHGMDTWVREIEKTKKEMRVSVEHVKVDDRNGRAKIDVIMNNEVNGKPVRDRKTATADVHNGKIKSLQYQFSEDQKKKDEG”: the protease stability score is -0.472.

“DEEAQKHLREFFKNQETGDPDKLMEMVDENVHWQVGDKTIEGRDTMKQDFDRRRKELRYHVDIKKVNAHNGRIRARATFHNEHNGKPKSFQAIVVAVITNGRIKSIHVQKRQ” yielded a protease stability score of -0.037.

For the sequence “DEEAQKKVEEWERAIEHGNEQQARELADKDVRIEVGDQRVRGMEDIARTQVRKQREITRHVRRFDAHATGDKIRVELVFEVHHDGQPRHQKYELRMVMHNGRVHSVRVETRR”, the protease stability score was found to be 0.412.

Take “DEEAQKLLDMLRKAEQTGDEDRVRQLADEDVKVRIGDKVIHGREEWARHVRRERNEMRFKIQDLKVDVQGDHLSVKYTAHRDHNGQPQSDTYHYTLQMHNGRIKHLNVTEEK”: the protease stability score is -0.004.
